Results taken from the supplement of paper PMC9112550, “Optimization of the antimicrobial peptide Bac7 by deep mutational scanning” (BMC Biology, 2022).

System: Escherichia coli TOP10
Assay: shrunken log2 fold change of peptide-encoding DNA abundance (4.5 h post-induction vs induction); higher = less antimicrobial activity (less host growth inhibition)
Conditions: time post-induction: 4.5 h; library: site-saturation at positions 5, 18, 19, 20
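Note: peptides expressed intracellularly from a pBAD plasmid library in pooled LB shake-flask culture, induced with 0.3% L-arabinose, DNA abundance read by NGS, three biological replicates, DESeq2 with apeglm shrinkage.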

| Sequence | shrunken log2 fold change |
| --- | --- |
| RRIRLRPPRLPRPRPRPNRKPRP | -0.223 |
| RRIRLRPPRLPRPRPRPIDCPRP | -0.00194 |
| RRIRYRPPRLPRPRPRPELKPRP | -0.162 |
| RRIRARPPRLPRPRPRPDPQPRP | 0.698 |
| RRIRLRPPRLPRPRPRPGHSPRP | -0.0313 |
| RRIRPRPPRLPRPRPRPRNGPRP | -0.0237 |
| RRIRPRPPRLPRPRPRPLRMPRP | 0.596 |
| RRIRWRPPRLPRPRPRPMDQPRP | -0.131 |
| RRIRYRPPRLPRPRPRPLFGPRP | -0.0957 |
| RRIRQRPPRLPRPRPRPNEHPRP | -0.0963 |
| RRIRDRPPRLPRPRPRPMIWPRP | -0.0952 |
| RRIRPRPPRLPRPRPRPYTYPRP | -0.0956 |
| RRIRFRPPRLPRPRPRPRFYPRP | -0.0297 |
| RRIRVRPPRLPRPRPRPRAVPRP | 0.314 |
| RRIRNRPPRLPRPRPRPQSAPRP | -0.073 |
| RRIRQRPPRLPRPRPRPMTMPRP | -0.243 |
| RRIRRRPPRLPRPRPRPSVLPRP | -0.0526 |
| RRIRPRPPRLPRPRPRPFYDPRP | -0.138 |
| RRIRWRPPRLPRPRPRPNFWPRP | 0.224 |
| RRIRPRPPRLPRPRPRPYGYPRP | -0.138 |
| RRIRARPPRLPRPRPRPGELPRP | 0.333 |
| RRIRVRPPRLPRPRPRPHINPRP | -0.524 |
| RRIRKRPPRLPRPRPRPINMPRP | -0.196 |
| RRIRSRPPRLPRPRPRPLMNPRP | -0.204 |
| RRIRERPPRLPRPRPRPFGPPRP | -0.146 |

| Sequence | shrunken log2 fold change |
| --- | --- |
| RRIRHRPPRLPRPRPRPTPVPRP | 0.137 |
| RRIRLRPPRLPRPRPRPRSKPRP | -0.111 |
| RRIRCRPPRLPRPRPRPSPTPRP | 0.022 |
| RRIRPRPPRLPRPRPRPEMCPRP | 0.291 |
| RRIRPRPPRLPRPRPRPMPVPRP | 0.0347 |
| RRIRIRPPRLPRPRPRPPHTPRP | -0.055 |
| RRIRDRPPRLPRPRPRPWPPPRP | 0.32 |
| RRIRERPPRLPRPRPRPLLFPRP | -0.121 |
| RRIRHRPPRLPRPRPRPYEKPRP | -0.195 |
| RRIRIRPPRLPRPRPRPFNGPRP | -0.211 |
| RRIRPRPPRLPRPRPRPMLMPRP | 0.459 |
| RRIRTRPPRLPRPRPRPGAKPRP | 0.524 |
| RRIRWRPPRLPRPRPRPELPPRP | 0.243 |
| RRIRERPPRLPRPRPRPKCTPRP | -0.882 |
| RRIRYRPPRLPRPRPRPMIPPRP | -0.727 |
| RRIRSRPPRLPRPRPRPWAVPRP | -0.0517 |
| RRIRSRPPRLPRPRPRPMNRPRP | -0.378 |
| RRIRQRPPRLPRPRPRPFGQPRP | -0.0598 |
| RRIRFRPPRLPRPRPRPEHTPRP | -0.213 |
| RRIRCRPPRLPRPRPRPWLYPRP | -0.246 |
| RRIRKRPPRLPRPRPRPDHYPRP | -0.0322 |
| RRIRMRPPRLPRPRPRPKRIPRP | 0.609 |
| RRIRIRPPRLPRPRPRPTHQPRP | 0.0537 |
| RRIRSRPPRLPRPRPRPECKPRP | 0.275 |
| RRIRFRPPRLPRPRPRPPRKPRP | 0.827 |

| Sequence | shrunken log2 fold change |
| --- | --- |
| RRIRARPPRLPRPRPRPGRRPRP | 0.339 |
| RRIRFRPPRLPRPRPRPCKQPRP | 0.00386 |
| RRIRYRPPRLPRPRPRPNCMPRP | -0.974 |
| RRIRRRPPRLPRPRPRPALCPRP | 0.334 |
| RRIRPRPPRLPRPRPRPVWHPRP | 0.186 |
| RRIRQRPPRLPRPRPRPKLVPRP | -0.0518 |
| RRIRQRPPRLPRPRPRPPGAPRP | 0.757 |
| RRIRVRPPRLPRPRPRPNSAPRP | 0.198 |
| RRIRCRPPRLPRPRPRPCIDPRP | -0.385 |
| RRIRFRPPRLPRPRPRPQFAPRP | 0.0456 |
| RRIRKRPPRLPRPRPRPYAPPRP | -0.241 |
| RRIRVRPPRLPRPRPRPKIFPRP | -0.00445 |
| RRIRERPPRLPRPRPRPATDPRP | -0.00755 |
| RRIRGRPPRLPRPRPRPWADPRP | 0.142 |
| RRIRLRPPRLPRPRPRPPWAPRP | 0.632 |
| RRIRDRPPRLPRPRPRPFWWPRP | 0.641 |
| RRIRNRPPRLPRPRPRPEMRPRP | -0.0181 |
| RRIRGRPPRLPRPRPRPPEWPRP | 1.13 |
| RRIRCRPPRLPRPRPRPPMTPRP | 0.155 |
| RRIRCRPPRLPRPRPRPSYCPRP | -0.342 |
| RRIRDRPPRLPRPRPRPPWPPRP | 0.654 |
| RRIRHRPPRLPRPRPRPFKYPRP | -0.115 |
| RRIRARPPRLPRPRPRPGCNPRP | 0.252 |
| RRIRIRPPRLPRPRPRPNYHPRP | -0.733 |
| RRIRGRPPRLPRPRPRPMELPRP | 0.271 |

| Sequence | shrunken log2 fold change |
| --- | --- |
| RRIRERPPRLPRPRPRPYQWPRP | 0.0039 |
| RRIRWRPPRLPRPRPRPCTEPRP | -0.0149 |
| RRIRIRPPRLPRPRPRPWASPRP | 0.00397 |
| RRIRERPPRLPRPRPRPRGMPRP | 0.0957 |
| RRIRCRPPRLPRPRPRPHDAPRP | -0.336 |
| RRIRSRPPRLPRPRPRPCTTPRP | -0.135 |
| RRIRQRPPRLPRPRPRPYWAPRP | -0.355 |
| RRIRIRPPRLPRPRPRPCLSPRP | -0.0164 |
| RRIRKRPPRLPRPRPRPGPDPRP | 0.608 |
| RRIRSRPPRLPRPRPRPAVYPRP | -0.585 |
| RRIRSRPPRLPRPRPRPFPGPRP | 0.0161 |
| RRIRGRPPRLPRPRPRPEDDPRP | 2.81 |
| RRIRVRPPRLPRPRPRPTMDPRP | -0.116 |
| RRIRRRPPRLPRPRPRPHEMPRP | 0.489 |
| RRIRCRPPRLPRPRPRPIINPRP | -0.325 |
| RRIRYRPPRLPRPRPRPCKKPRP | -0.0222 |
| RRIRPRPPRLPRPRPRPWETPRP | 0.124 |
| RRIRSRPPRLPRPRPRPPTRPRP | 0.651 |
| RRIRWRPPRLPRPRPRPINAPRP | 0.252 |
| RRIRRRPPRLPRPRPRPEYPPRP | -0.137 |
| RRIRCRPPRLPRPRPRPDVNPRP | -0.281 |
| RRIRWRPPRLPRPRPRPRVTPRP | 1.75 |
| RRIRRRPPRLPRPRPRPYRLPRP | -0.0421 |
| RRIRRRPPRLPRPRPRPTYYPRP | -0.0395 |
| RRIRMRPPRLPRPRPRPLIHPRP | -0.207 |

| Sequence | shrunken log2 fold change |
| --- | --- |
| RRIRCRPPRLPRPRPRPHRRPRP | -0.167 |
| RRIRKRPPRLPRPRPRPIPQPRP | -0.184 |
| RRIRWRPPRLPRPRPRPWFSPRP | 0.0565 |
| RRIRFRPPRLPRPRPRPITYPRP | -0.472 |
| RRIRQRPPRLPRPRPRPPFFPRP | 0.249 |
| RRIRFRPPRLPRPRPRPFDVPRP | -0.247 |
| RRIRGRPPRLPRPRPRPFLGPRP | 0.0188 |
| RRIRWRPPRLPRPRPRPIFKPRP | 0.0632 |
| RRIRGRPPRLPRPRPRPRLQPRP | 0.759 |
| RRIRHRPPRLPRPRPRPSISPRP | -0.727 |
| RRIRSRPPRLPRPRPRPNETPRP | -0.198 |
| RRIRRRPPRLPRPRPRPYLRPRP | 0.0234 |
| RRIRIRPPRLPRPRPRPLCSPRP | -0.682 |
| RRIRSRPPRLPRPRPRPSRMPRP | -0.205 |
| RRIRWRPPRLPRPRPRPKTYPRP | -0.421 |
| RRIRNRPPRLPRPRPRPCIVPRP | 0.045 |
| RRIRQRPPRLPRPRPRPCEFPRP | -0.311 |
| RRIRVRPPRLPRPRPRPNRWPRP | -0.0283 |
| RRIRPRPPRLPRPRPRPHPNPRP | 0.00254 |
| RRIRRRPPRLPRPRPRPDTCPRP | 0.133 |
| RRIRFRPPRLPRPRPRPPYWPRP | 0.191 |
| RRIRMRPPRLPRPRPRPCPGPRP | -0.000588 |
| RRIRGRPPRLPRPRPRPSDNPRP | -0.165 |
| RRIRCRPPRLPRPRPRPTFDPRP | -0.164 |
| RRIRERPPRLPRPRPRPHRFPRP | -0.169 |
